This data set in a line: label from the status in PepcDB records.
With “MSFDRPEIYSAPVLQGESPNDDDNTEIIKSFKNFILEFRLDSQFIYRDQLRNNILVKNYSLTVNMEHLIGYNEDIYKKLSDEPSDIIPLFETAITQVAKRISILSRAQSANNNDKDPENTSMDTDSLLLNSLPTFQLILNSNANQIPLRDLDSEHVSKIVRLSGIIISTSVLSSRATYLSIMCRNCRHTTSITINNFNSITGNTVSLPRSCLSTIESESSMANESNIGDESTKKNCGPDPYIIIHESSKFIDQQFLKLQEIPELVPVGEMPRNLTMTCDRYLTNKVIPGTRVTIVGIYSIYNSKNGAGSGRSGGGNGGSGVAIRTPYIKILGIQSDVETSSIWNSVTMFTEEEEEEFLQLSRNPKLYEILTNSIAPSIFGNEDIKKAIVCLLMGGSKKILPDGMRLRGDINVLLLGDPGTAKSQLLKFVEKVSPIAVYTSGKGSSAAGLTASVQRDPMTREFYLEGGAMVLADGGVVCIDEFDKMRDEDRVAIHEAMEQQTISIAKAGITTVLNSRTSVLAAANPIYGRYDDLKSPGDNIDFQTTILSRFDMIFIVKDDHNEERDISIANHVINIHTGNANAMQNQQEENGSEISIEKMKRYITYCRLKCAPRLSPQAAEKLSSNFVTIRKQLLINELESTERSSIPITIRQLEAIIRITESLAKLELSPIAQERHVDEAIRLFQASTMDAASQDPIGGLNQASGTSLSEIRRFEQELKRRLPIGWSTSYQTLRREFVDTHRFSQLALDKALYALEKHETIQLRHQGQNIYRSGV”, the protein production result is “failed”.

On to “MSFEAFTELYIRDVKTRLKENTWLTKEHIIRTKILPYFGKLRISEISTKEIITWQNELLAYRDEKKKPYSQTYLKTLHNQLSAIFNHAVRYYELRSNPAAKVGNMGSE”, for which the protein production result is “failed”.

Take “MSFFNKIILIGRLVRDPEERYTLSGTPVTTFTIAVDRVPRKNAPDDAQTTDFFRIVTFGRLAEFARTYLTKGRLVLVEGEMRMRRWETPTGEKRVSPEVVANVVRFMDRKPAETVSETEEELEIPEEDFSSDTFSEDEPPF”: the protein production entry was “not failed”.

For the sequence “MSFGNEKGQDIIHRKEVEFFVKNLKDYFSNINKYVVILWDEEGIILEFKENGGNLLGYTPEQIEGKKWPDILTDGKDKEQTTEINKKLVNSKIVRYYINSIKDVNGTSKIFLWCNLKLENVQSDKKIFLSVGFNLDSIDNLKEKTDESKFELDTLNEKKENLEFKVTKDDLILKQKDDTIRDYKSKLEFLAFYDELTGLPNKNSLIRWLNLKVSQMDCIDTYLIFLEVRDLEKLNVTYGYDLVDELIIHISKRIKDIAGEGNKAFKIGFDRFAIICKSENISDFIERMLSQLLLPYNVNGNLIRVNFNIGAAQIENSNEAAANLMRRCDLALIKAKEEGLNEYVIFKPSIEIQTLKEGILERELRNGIELNEFIVFYQPFVKLENDKICGFEALLRWYYLKSVFVSPLEFIPVAEKYGLIIDLGNMVLKQSLKAGKILKKYYDDEFTISINISPKQFIDKRFVKNTIEILENEKLQDIRLRFEITEKVAIENIDYTIRIMNEFKKYNVTFALDDFGVEYSSLNYLRKLPIEAVKIDKSFVQDINDHDTYFIVETIVKLCKKLNLKTVIEGVETQRQYQIIKELGCDYAQGYFIAKPLPINELINLVGKYKILE”, the protein production entry is listed as “failed”.

As for “MSFKNDHKYQWKDMQGKDFLLPFIYLIGNFCLSIVILTIMIGINETQGKNNANFNANFSGTPGILMEMIAFIIIFALWILFHRHSFRQSWKQGLQNIKQHWKLIVITFIVIIVFKEIYPYLVNAFAPEHWKFEETQNDKMVEEMFATPVSTILAFFSIVIIAPMTEEFLFRHLIIGELGKKLNFYVMSVISIIVFASLHVTEAKSPLEIVMYLAIAVGIVYVYMKSQRSLAVAIALHALNNLLAYIFMIIM”, the protein production entry is listed as “failed”.

On to “MSFSTEIEVRFKHCDPAGIVFFPRYFEMINDVVEDWFANDLGCPFHELVKENGAPTAQIQARFTAPSLHGDVLSFRLTPTRIGNSSLDYDLTAHCGDELRLRATATLVHVARLGRSQPWPQAIRERVAAQIDSALEHHHHHH”, for which the protein production result is reported as “failed”.

“MSFVECPYHSPAERLVAEADEGGPSAITGMGLCFRCLLFSFSGRSGVEGGRVDLNVFGSLGLQPWIGSSRCWGGPCSSALRCGWFSSWPPPSKSAIPIGGGSRGAGRVSRWPPPHWLEAWRVSPRPLSPLSPATFGRGFIAVAVIPGLWARGRGCSSDRL”: the protein production entry is listed as “failed”.

As for “MSFVTTQPEALAAAAANLQGIGTTMNAQNAAAAAPTTGVVPAAADEVSALTAAQFAAHAQMYQTVSAQAAAIHEMFVNTLVASSGSYAATEAANAAAAG”, the protein production entry is “failed”.

With “MSFYVVVGAGPVGRETARLLGEEGHDVVLTSRSVGSNALPNVRTVQADATDASELSRICRGADAIFMCAMAAYHRWPTDFFPIIDGTVRAAEAVGAKLIVLGNLYGYGENADSPLRSDLPLDPTSRKGTARTIMWQRAVRAGIPAIEIRSSDYLGHGAISYFSLIALPAIIEGKPTAFIGDLDATHAWAFTKDVARTLVAAALYKGEWGRAFHVPSQYASPRELIQKAAAMLGQEVSGTLSYSVPEIEALGMHEAIEMSYLFEKPLLVDASDTEALLGVKASSLEEMIADTLRDHL”, the protein production entry is listed as “failed”.

Consider “MSGDILNDIVAACLELERKASSVFKMFAAHAGSDEARRFWETVADETRHHSAVYERLQERGGRENLPIIIYKPAETLEELEMIGKSIDEQVERYTEAPSSEAACLLGFRLQLYLLHPAFASLCRLTRDASGEDLPDIGYGRYLRRFIDGIGSCGLATAETELLGEALFRLWNEARQLAAQSHFDALTGVMTRAGFFKTVGSLAYAAQRSGSNVGIMLIDLDYFKLVGDNYGHQTGDRILQLVAETITSHLRRSDVVGRYDGDEFVVYLSPVEPASLRTVAENLRRSIEEESARMVPVTASIGVAQGILGTDVDGGIEELVRLADECLMQAKYTGKNKVVVK”, for which the protein production result is recorded as “not failed”.

On to “MSGDYRITLEELRYISVFHSITGVTAYRCIVDEENNRLIFLVSEGEAGRAIGRGGRLIKLLREALGKNIEVVEYSSDLERIVKNLFPGVKIESINVRERNGVKQVVIKVSEDDKGAAIGKGGKNVKRARLVLSKLFGVEKVVIR”, for which the protein production entry is “not failed”.

Turning to “MSGEGDTTLKAICYKPGSLQLLDQRKLPLETIYLEIRDASDGWSAIQEMVVRGAPAIAIAAALSLAVEVFNFHGFDGSASDAVAFLENKLDYLVSSRPTAVNLADAALKLKHVIAKALATATEAKSIFKAYIEASEDMLEDDVVSNKAIGNFGLSLLRQQAKNPDKLSVLTHCNTGSLATAGYGTALGVIRALHTQGILERAYCTETRPFNQGSRLTAFELVHEKIPATLIADSAAAALMKDGRVDGVIVGADRVASNGDTANKIGTYSLALCAKHHGIPFYVAAPLTSVDLSLSSGKEIVIEERSPKELMHTHGGLGERIAAPGISVWNPAFDMTPAELIAGIITEKGVITKNGNDTFDISSFAKKITGNSSR”, the protein production result was “failed”.

“MSGEKIDITPKKDGGVLKLIKKEGQGVVKPTTGTTVKVHYVGTLENGTKFDSSRDRGDQFSFNLGRGNVIKGWDLGVATMTKGEVAEFTIRSDYGYGDAGSPPKIPGGATLIFEVELFEWSAEDISPDRDGTILRTIIVEGSKNSFPNDTSKVLAHCVGTYQGTEFYNREVNFHIGEGSEEGLPEGVERALRRFQLGEKSKIEIRGHKYTYGNSPPAGSNIPVNATLEFTIFLKEFEKVPATWEMTAEEKLDAAKQAKDRGTMYLQKGNLKLAYNKYKRAEEVLEYEKSTDPEKMAERETILNGAYLNLSLVCSKQNEQLECIKWCDKVLETKPGNVKALYRKATALLTMNEVRDAMKLFEKIVEVEPENKAAAQQIIVCRNTIREQNERDKKRFKNLFAKISTEEDKPTNTVEDEDEIVASTSGSSTSNA”: the protein production result is given as “not failed”.

Take “MSGFSMKRVSQMTALAMALGLACASSWAAELAKPLTLDQLQQQNGKAIDTRPSAFYNGWPQTLNGPSGHELAALNLSASWLDKMSTEQLNAWIKQHNLKTDAPVALYGNDKDVDAVKTRLQKAGLTHISILSDALSEPSRLQKLPHFEQLVYPQWLHDLQQGKEVTAKPAGDWKVIEAAWGAPKLYLISHIPGADYIDTNEVESEPLWNKVSDEQLKAMLAKHGIRHDTTVILYGRDVYAAARVAQIMLYAGVKDVRLLDGGWQTWSDAGLPVERGTPPKVKAEPDFGVKIPAQPQLMLDMEQARGLLHRQDASLVSIRSWPEFIGTTSGYSYIKPKGEIAGARWGHAGSDSTHMEDFHNPDGTMRSADDITAMWKAWNIKPEQQVSFYCGTGWRASETFMYARAMGWKNVSVYDGGWYEWSSDPKNPVATGERGPDSSK”: the protein production result was “failed”.

For the sequence “MSGGGVIRGPAGNNDCRIYVGNLPPDIRTKDIEDVFYKYGAIRDIDLKNRRGGPPFAFVEFEDPRDAEDAVYGRDGYDYDGYRLRVEFPRSGRGTG”, the protein production result is “not failed”.

With “MSGGLVALLDDVAALARIAAASVDDIAAGAAKAGAKAAGVVIDDAAVTPQYVSGADPSRELPMIKRIFWGSLRNKLLIILPALLLVSAFIPGVIPFILMLGGTYLCYEGAEKVWHKLRGHSATEKAPAVQRGPEAEAKVTKGAITTDFILSCEIMVIAMNEVADESLWVRALILVVVAFVITVVVYGAVGLIVKMDDIGLHLTTKASSGSQRFGRLLVKGMPAVLAAITLIGTIAMLWVGGHIMLQGAYDLGWHAPYDLVHVLETPFAGIPVAGGFLAWLVNTLCSAILGAVWGLVIMVILHPLLKVLPFGKKHEGHEEGDVRAAIAGYRPAKSKPTR”, the protein production result is “failed”.

As to “MSGKRALITGIRGQDGAYLAKLLLEKGYEVYGADRRSGEFASWRLKELGIENDVKIIHMDLLEFSNIIRTIEKVQPDEVYNLAAQSFVGVSFEQPILTAEVDAIGVLRILEALRTVKPDTKFYQASTSEMFGKVQEIPQTEKTPFYPRSPYAVAKLFGHWITVNYREAYNMFACSGILFNHESPLRGIEFVTRKITYSLARIKYGLQDKLVLGNLNAKRDWGYAPEYVEAMWLMMQQPEPDDYVIATGETHTVREFVEKAAKIAGFDIEWVGEGINEKGIDRNTGKVIVEVSEEFFRPAEVDILVGNPEKAMKKLGWKPRTTFDELVEIMMEADLKRVRDREVSV”, the protein production result is listed as “not failed”.

For “MSGLRVYSTSVTGSREIKSQQSEVTRILDGKRIQYQLVDISQDNALRDEMRTLAGNPKATPPQIVNGNHYCGDYELFVEAVEQDTLQEFLKLA”, the protein production entry is reported as “not failed”.

Consider “MSGQADTATTAEARTPAHAAHHLVEGVARVLTKPRFRGWIHVYSAGTAVLAGASLVAVSWAVGSAKAGLTTLAYTAATITMFTVSATYHRVNWKSATARNWMKRADHSMIFVFIAGSYTPFALLALPAHDGRVVLSIVWGGAIAGILLKMCWPAAPRSVGVPLYLLLGWVAVWYTATILHNAGVTALVLLFVGGALYSIGGILYAVRWPDPWPTTFGYHEFFHACTAVAAICHYIAMWFVVF”, for which the protein production result is reported as “failed”.

Turning to “MSGQPTAVDCLESSGSTVEDVQETPASREKSYGLPVRKGENSLESPAEQAAKDVEIEELTHSEAIAATGSTRKQCPYGGKAPDEPGKLADESEDRKGENTKAIASSPVLVAVDSDSSVELIESPVKFSSANESEKDPPKPDAVNEAAAKE”, the protein production entry was “failed”.

For “MSGSLARAAARPNAPTLVDEATVDDFIAHSGKIVVLFFRGDAVRFPEAADLAVVLPELINAFPGRLVAAEVAAEAERGLMARFGVAVCPSLAVVQPERTLGVIAKIQDWSSYLAQIGAMLAEVDQPGEAELQS”, the protein production entry is on record as “not failed”.

On to “MSGSSHYPVANWNLDGIVSGLRGARQEWRGPRGRLREESESGVREFPSQESLRDIMRQLFGALFPMRLGPIDLREEVEDFYVGHTIGAALDALLHQVCLELQHLGRDDPQPYGQVLERAVDIVRRFGAELPAVRKALDLDVTAAYQGDPAARSVDEVLLCYPGVTAMIHHRLANVLYRLGAPMLARIVAEIAHSDTGIDIHPGATIGRSFFIDHGTGVVIGETAIIGERVRLYQMVTLGAKRFPPGENGELKKGLPRHPIIEDDVVIYAGATILGRITIGQGSTIGGNVWLTHSVPPNSTVTQAGAINDMPDCGLGGLEHHHHHH”, for which the protein production result is recorded as “failed”.

The values are drawn from a protein production outcome set (Wang et al. 2014).
